{"source": "paper PMC9719539", "about": "“Single-molecule characterization of subtype-specific β1 integrin mechanics” (Nature Communications, 2022)", "system": "BJ-5ta cells", "test": "Percentage of spread cells / cell spreading on TGT surfaces", "assay_type": "cell-based, human", "conditions": "1 h after seeding", "protocol": "Glass coverslips were densely PEGylated to minimize non-specific interactions such as the binding of cell-secreted extracellular matrix proteins. Coverslips cleaned by piranha etching solution (a 3:1 mixture of sulfuric acid and hydrogen peroxide) were incubated in silanization solution (UCT, 1760-24-3; 2% aminosilane and 5% acetic acid in methanol) for 30 min and reacted with a mixture of Polyethylene glycol (PEG) with and without biotin (1:19, 150 mg/ml; Laysan Bio, Biotin-PEG-SVA-5000 and MPEG-SVA-5000) for 4 h. Surfaces were washed thoroughly and dried using nitrogen gas after each step. A 3D-printed dish (PLA) or a silicon gasket (Grace Bio Labs, 103280) was attached to the coverslip to form a dish. Neutravidin (Thermo Fisher scientific, 31000; 0.4 mg/ml) was added to the dish for 10 min and washed out thoroughly. […]\nThe cells were gently harvested by washing in PBS for 1 min, incubating with 0.05% trypsin for 3 min, and then neutralizing with cell culture medium (FBS 10%). […] A Nikon Eclipse Ti microscope equipped with Xenon arc lamp, Nikon perfect focus system, custom total internal reflection fluorescence microscopy (TIRFM) module, and custom reflection interference contrast microscopy (RICM) module was driven by Elements software. […] Images were recorded using an electron-multiplying charge-coupled device (EMCCD; Andor iXon 888). […]"}
{"molecule": "vitronectin: physiologic macromolecular ligand with RGD motif (protein, UniProt P04004 20-478, looked up) Vitronectin: DQESCKGRCTEGFNVDKKCQCDELCSYYQSCCTDYTAECKPQVTRGDVFTMPEDEYTVYDDGEEKNNATVHEQVGGPSLTSDLQAQSKGNPEQTPVLKPEEEAPAPEVGASKPEGIDSRPETLHPGRPQPPAEEELCSGKPFDAFTDLKNGSLFAFRGQYCYELDEKAVRPGYPKLIRDVWGIEGPIDAAFTRINCQGKTYLFKGSQYWRFEDGVLDPDYPRNISDGFDGIPDNVDAALALPAHSYSGRERVYFFKGKQYWEYQFQHQPSQEECEGSSLSAVFEHFAMMQRDSWEDIFELLFWGRTSAGTRQPQFISRDWHGVPGQVDAAMAGRIYISGMAPRPSLAKKQRFRHRNRKGYRSQRGHSRGRNQNSRRPSRATWLSLFSSEESNLGANNYDDYRMDWLVPATCEPIQSVFFFSGDKYYRVNLRTRRVDTVDPPYPRSIAQYWLGCPAPGHL", "values": [{"measurement": "cell morphology (in words)", "result": "elongated with irregular lamellipodia"}]}
